The values below come from patent US5674712.

The experiment deals with sub-unit alpha of human chorionic gonadotropin (human) (UniProt P01215). In words: SPR (BIACORE), alpha hCG fixed to the sensor.

B1: antibody scFv5E8 specific for sub-unit alpha of human chorionic gonadotropin (scFv)
scFv: QVQLQQSGAELMKPGASVKLTASCSGFSIKDTYMHWVKQRPEQGLEWIGRIDPANGNTKYDPKFQGKATITADTSSNTAYLQLSSLTSEDTAVYYCHRFEFAMDYWGQGTTVTVSSGGGGSGGGGSGGGGSDIQGTQSPASLVVSLGQRATISCRASKSVSASGYSYVNWYQQKPGQPPKLLIYLASNLESGVPARFSGSGSGTDFTLNIHPVEEEDAATYYCQHSRELPLTFGAGTKLEISMEELMIEGR
With B1, the Kdiss, fold against MAb 5E8 amounted to 300 times.
